Measured values as given in publication PMC3997499, “Resolving Hot Spots in the C-Terminal Dimerization Domain that Determine the Stability of the Molecular Chaperone Hsp90” (PLoS ONE, 2014).
“And” between values parts separate entries of the source, which are not always exact repeats. Equal entries are not always repeated.

B1: hHsp90 CTD hot spot mutant I CTD^Y689A/I692A/L696A (domain or fragment)
chain: not shown
notes: human Hsp90 alpha isoform (UniProt P07900), C-terminal domain, residues 563-732, with Y689A, I692A and L696A; Same construct as m1 (pTEV21-a), made by site-directed mutagenesis
B2: C-terminal domain (CTD) of human heat shock protein of 90 kDa (hHsp90), wild type (domain or fragment)
chain: not shown
notes: human Hsp90 alpha isoform (UniProt P07900), C-terminal domain, residues 563-732; synthetic codon-optimized DNA; Vector pTEV21-a; also called CTD wt; wt
B3: hHsp90 CTD hot spot mutant II CTD^I688A/Y689A/I692A (domain or fragment)
chain: not shown
notes: human Hsp90 alpha isoform (UniProt P07900), C-terminal domain, residues 563-732, with I688A, Y689A and I692A; Same construct as m1 (pTEV21-a), made by site-directed mutagenesis
B4: hHsp90 CTD cold spot mutant CTD^S658A/Q682A (domain or fragment)
chain: not shown
notes: human Hsp90 alpha isoform (UniProt P07900), C-terminal domain, residues 563-732, with S658A and Q682A; Same construct as m1 (pTEV21-a), made by site-directed mutagenesis; also called S658A/Q682A cold spot mutant

How the values were obtained:
[1] = molecular target: the molecule itself; assay: SEC-MALS; Bio SEC-5 150 Å column, HPLC buffer without glycerol (10 mM MES, 200 mM KCl, 1 mM EDTA, pH 6), samples 2.4 mg/ml; dimer to monomers
[2] = molecular target: the molecule itself; assay: SEC; Superdex SD200 10/300, 4°C, HPLC buffer (10 mM MES/KOH, 200 mM KCl, 1 mM EDTA, 1% glycerol) pH 6, 110 µL purified CTD, triplicates; apparent stoichiometry from calibration with globular protein standards
[3] = molecular target: the molecule itself; assay: SEC-MALS; Bio SEC-5 150 Å column, HPLC buffer without glycerol (10 mM MES, 200 mM KCl, 1 mM EDTA, pH 6), samples 2.4 mg/ml; dimer to monomers; remark: listed apart in the source

Protein | fraction of species 1 (monomer mass) [1] | fraction of species 2 (dimer mass) [1] | stoichiometry N [2] | stoichiometry N [3] | binding result [2]
B1 | 0.77 | 0.23 | 4 | 2 | –
B2 | 0 | 1 | 4 and 8 | 2 | –
B3 | 0.69 | 0.31 | 4 | 2 | –
B4 | – | – | – | – | binds
